This note sets out measurements from patent US20120065106.

The test system of series [1] is SUMO*-GFP (engineered SUMO 2F4, Smt3 R64T R71E, fused to GFP).
In series [2] the test system is SMT3-GFP (wild-type SUMO-GFP fusion) [SUMO: Q12306].
Chain of SMT3-GFP (wild-type SUMO-GFP fusion) [SUMO: Q12306] (Q12306 whole entry, looked up, the tested form may be a part): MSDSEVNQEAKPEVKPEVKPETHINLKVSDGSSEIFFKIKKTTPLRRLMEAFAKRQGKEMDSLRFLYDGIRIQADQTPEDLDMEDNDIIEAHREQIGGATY

Chain of SUMO*-GFP (engineered SUMO 2F4, Smt3 R64T R71E, fused to GFP) (chain, as listed by the source R64T R71E): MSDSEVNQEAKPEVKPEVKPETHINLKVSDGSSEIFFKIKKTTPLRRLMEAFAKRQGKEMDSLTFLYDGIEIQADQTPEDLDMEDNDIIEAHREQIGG

With SUMO protease 2 (SENP2), in series [1], the “in vitro cleavage reaction” value is listed as “Neither protease cleaved SUMO*”. The “in vitro cleavage (SDS-PAGE and anti-Smt3 Western blot)” value in series [2] is “wild-type SUMO (Smt3) is cleaved by ULP1 and SENP2 (SUMO protease 1 and 2) in vitro”.
